Reference: the nanobody polyreactivity screen of Harvey et al. (2022)

Assay: yeast display, Sf9 membrane polyspecificity reagent, FACS + sequencing; frameworks hold sequencing errors
How it was run: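 Galactose-induced (36–48 hours) yeast carrying a synthetic nanobody display library were exposed to 10% biotinylated, detergent-solubilized Sf9 membrane reagent at 4 °C for 1 hour. FACS followed streptavidin microbead enrichment, using low and high (top ~1%) gates for expression (anti-HA) and reagent binding (streptavidin). Colony PCR, MiSeq 2 × 250 sequencing and CDR-length filtering followed. Labels for polyreactivity reflect the gate of origin.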

**Q.** For “QVQLVESGGGLVQAGGSLRLSCAASGFTFSTNAMGWYRQAPGKERELVAAISCTGGSTYYADSVKGRFTISRDNAKNTVYLQMNSLKPEDTAVYYCATKFFNPGMYFWGQGTQVTVSS”, which “polyreactivity (PSR sort gate)” value is on record?
**A.** The value was “high polyreactivity”.

**Q.** Which “polyreactivity (PSR sort gate)” value does the source give for “QVQLVESGGGLVQAGGSLRLSCAASGFTFSTYAMGWYRQAPGKERECVAAISSGGTTNYADSVKGRFTISRDNAKNTVYLQMNSLKPEDSAVYYCAADWYRYYEYGAYGYWGQGTQVTLSS” here?
**A.** Its value is “low polyreactivity”.

**Q.** For “QVQLVESGGGLVQAGGSLRLSCAASGFTFSTYAMGWYRQAPGKERELVAAISFSGGSTYYADSVKGRFTISRDNAMNSVYLQMNRLKPEDTAVYYCARAYTKYFEIYFIYALLYGHWGQGTQVTVSS”, which “polyreactivity (PSR sort gate)” value is on record?
**A.** The value was “low polyreactivity”.

**Q.** With “QVQLVESGGGLVQAGGSLRLSCAASGFTFSVNAMGRYRQAPGKERELVAAISSRGSITYYADSVKGRFTISRDNAKNTVYLQMNSLKPEDPAVYYCNAYKYKSPGDYWGQGTQVTVSS” as the sequence, how does the “polyreactivity (PSR sort gate)” value read?
**A.** The value was “high polyreactivity”.

**Q.** For “QVQLVESGGGLVQAGGSLRLSCAASGFTFSVYAMGWYRQAPGKERELVAAINWSGSTTYYADSVKGRFTISRDNAKNTVYLQMNSLKPEDTAVYYCAVEGRTTWPFRTYGYWGQGTQVTVSS”, which “polyreactivity (PSR sort gate)” value is on record?
**A.** Its value is “high polyreactivity”.

**Q.** For “QVQLVESGGGLVQAGGSLRLSCAASGFTFSVYAMGWYRQAPGKERELVAAISDSGGRTYYADSVKGRFTISRDNEKNTVYLQMNSLKPEDSAVYYWKARPAGRGYNYWGQGTQVTVSS”, which “polyreactivity (PSR sort gate)” value is on record?
**A.** Its value is “high polyreactivity”.

**Q.** For “QVQLVESGGGLVQAGGSLRLSCAASGFTFSVYAMGWYRQAPGKERELVAAISRGGGGTYYADSVKGRFTISRDNAKNTVYLQMNSLKPEDTAVYYCNAAGYPQYKGYDYWGQGTQVTVSS”, which “polyreactivity (PSR sort gate)” value is on record?
**A.** The value was “high polyreactivity”.

**Q.** With “QVQLVESGGGLVQAGGSLRLSCAASGFTFSVYAMGWYRQAPGKERELVADIDWSGGSTYYADSVKGRFTISRDNAKNTVYLQMNSLNPEDTAVYYCAADYYYPDSYVQGTSGEYWGQGTQVTVSS” as the sequence, how does the “polyreactivity (PSR sort gate)” value read?
**A.** The value was “low polyreactivity”.

**Q.** For “QVQLVESGGGLVQAGGSLRLSCAASGFTFSWYALGWYRQAPGKESELVAAINWSGTSTYYADSVKGRFTISRDNAKNTVYLQMNSLKPEDTAVYYCNVVVYRWSPVSKLDYWGQGTQVTVSS”, which “polyreactivity (PSR sort gate)” value is on record?
**A.** The value was “high polyreactivity”.

**Q.** With “QVQLVESGGGLVQAGGSLRLSCAASGFTFSWYAMGWYRQAPGKERELVAAINADGGTTYYADSVKGRFTISRDNAKNTVYLQMHSLKPEDTAVYYFAAELSVDKYDYWGQGTQVSVSS” as the sequence, how does the “polyreactivity (PSR sort gate)” value read?
**A.** Its value is “low polyreactivity”.

**Q.** For “QVQLVESGGGLVQAGGSLRLSCAASGFTFSWYAMGWYRQAPGKERELVAAISLSGDRTYYADSVKGRFTISRDNAKNSVYLQMNSLKPDDTAVYYCVFAFEYFYWGQGTQVTVSS”, which “polyreactivity (PSR sort gate)” value is on record?
**A.** Its value is “low polyreactivity”.

**Q.** For “QVQLVESGGGLVQAGGSLRLSCAASGFTFSYNAMGWSRQAPGKERELVAAISSAGSTYYADSVKGRFTISRDNAKNTVYLQMNSLKPEDTAVYYCNAYRRSYRWYGDLGEYWGQGTQVTVSS”, which “polyreactivity (PSR sort gate)” value is on record?
**A.** Its value is “high polyreactivity”.

**Q.** For “QVQLVESGGGLVQAGGSLRLSCAASGFTFSYNAMGWYRQAPGKERELVAAIDWGGGSTYSYSVKGRFTISRDNAKNTVYLQMNSLKPEDTAVYYCAAYIPSSGRNPEIGVEYDYWGQGTQVTVSS”, which “polyreactivity (PSR sort gate)” value is on record?
**A.** The value was “low polyreactivity”.

**Q.** Which “polyreactivity (PSR sort gate)” value does the source give for “QVQLVESGGGLVQAGGSLRLSCAASGFTFSYNAMGWYRQAPGKERELVAAISSTGTSTYYADSVKGRFTISRDNAKNTVYLQMNSLKPEDTAVYYCNAYGYDGYYAGRHGYWGQGTQVTVSS” here?
**A.** Its value is “low polyreactivity”.

**Q.** For “QVQLVESGGGLVQAGGSLRLSCAASGFTFSYYAMGWSRPEPGKERELVAAISSSASRTYYAESVKGRFTISRDNAKNTVYFQMNSLKPEDTAVYYCAARYSESRTRHLDYWGQGTQVTVSS”, which “polyreactivity (PSR sort gate)” value is on record?
**A.** The value was “high polyreactivity”.

**Q.** For “QVQLVESGGGLVQAGGSLRLSCAASGFTFSYYAMGWYRQAPGKERELVAAISSGGSTNYADSVKGRFTISRDNAKNTVYLQMNSLKPEVTAVYYCNVRLYYPTYASMEYWGQGTQVTVSS”, which “polyreactivity (PSR sort gate)” value is on record?
**A.** The value was “low polyreactivity”.

**Q.** With “QVQLVESGGGLVQAGGSLRLSCAASGFTFSYYAMGWYRQAPGKERELVASISRSGNTYYADSVKGRFTISRDNAKNTVYLQMNSLKPEDTAVYYCNARRHYRRYSYRHNYWGQGTQVTVSS” as the sequence, how does the “polyreactivity (PSR sort gate)” value read?
**A.** Its value is “high polyreactivity”.

**Q.** Which “polyreactivity (PSR sort gate)” value does the source give for “QVQLVESGGGLVQAGGSLRLSCAASGFTFTAYAMGWYRQAPGKERELVAAINWSGSRTYYADSVKGRFTISRDNAKNTVYLQMNSLIPEDSAVYYCNTATSKSSYRHYDYWGQGTQVTVSS” here?
**A.** Its value is “high polyreactivity”.

**Q.** Which “polyreactivity (PSR sort gate)” value does the source give for “QVQLVESGGGLVQAGGSLRLSCAASGFTFTGNAMGWYRQAPGKERELVAAITSGTSTYYADSVKGRFTISRDNAKNTVYLQMNSLKPEDTAVYYCAKEYPLDGRGSDYCGQGTQVTVSS” here?
**A.** Its value is “low polyreactivity”.

**Q.** With “QVQLVESGGGLVQAGGSLRLSCAASGFTFTKYDMGWYRQAPGKETELVAVITWSGGSTYYADSVKGRFTISRDNAKNTVYLQMNSLKPEDTAVYYCNAEAPRYTYGRMDYWGQGTQVTVSS” as the sequence, how does the “polyreactivity (PSR sort gate)” value read?
**A.** Its value is “low polyreactivity”.

**Q.** With “QVQLVESGGGLVQAGGSLRLSCAASGFTFTPNAMGSYRQAPGKERELVAAITSGGNTYADSVKGRFTISRDNAKNTVYLQMNSLKPEDTAVYYCAKGEGYWYIARYLPVGYGYWGQGTQVTVSS” as the sequence, how does the “polyreactivity (PSR sort gate)” value read?
**A.** The value was “low polyreactivity”.

**Q.** With “QVQLVESGGGLVQAGGSLRLSCAASGFTFTPNAMGWYRQAPGKERELVAITWSDGNTYYADSVKGRFTISRDNAKNTVYLQMNSLKPEDTAVYYCNADSTQGAWWPWLNDYWGQGTQVTVSS” as the sequence, how does the “polyreactivity (PSR sort gate)” value read?
**A.** The value was “high polyreactivity”.

**Q.** With “QVQLVESGGGLVQAGGSLRLSCAASGFTFTQYGMGWYRQAPGKEREFVATIRFSGDNTYYADSVKGRFTISRDNAKNTVYLQMNSLKPEDTAVYYCNADNRAFFVYPVSKRYDSWGQGTQVTVSS” as the sequence, how does the “polyreactivity (PSR sort gate)” value read?
**A.** The value was “low polyreactivity”.

**Q.** With “QVQLVESGGGLVQAGGSLRLSCAASGFTFTRNAMGWYRQAPGKERELVAAISSSAGSTSYADSVKGRFTISRDNAKNTVYLQMNSLKPEDTAVYYCAKSYRSSRRYNYWGQGTQVTVSS” as the sequence, how does the “polyreactivity (PSR sort gate)” value read?
**A.** The value was “high polyreactivity”.

**Q.** For “QVQLVESGGGLVQAGGSLRLSCAASGFTFTRYAMGWYRPAPGKERELVAAISWNGGSMYYADSVKGRFTISRDNAKNTVYLQMNSLKPEDTAVYYCAVRFKYQWSKFGYWGQGTQVTVSS”, which “polyreactivity (PSR sort gate)” value is on record?
**A.** Its value is “high polyreactivity”.

**Q.** For “QVQLVESGGGLVQAGGSLRLSCAASGFTFTRYTMGWYRQAPGKERELVAAITSGGRTNYADSVKGRFTISRDNAKNTVYLQMNSLKPEDTAVYYCAARYVYYWAYGNEYWGHGTQVTVSS”, which “polyreactivity (PSR sort gate)” value is on record?
**A.** Its value is “high polyreactivity”.

**Q.** For “QVQLVESGGGLVQAGGSLRLSCAASGFTFTSNVMGWYREAPGKEWELVADISASDGRTYYADSVKGRFTISRDNAKNTVYLQMNSLKREDTAVYYCNVSSRRLRGLDYWGQGTQVTVSS”, which “polyreactivity (PSR sort gate)” value is on record?
**A.** The value was “low polyreactivity”.

**Q.** For “QVQLVESGGGLVQAGGSLRLSCAASGFTFTSYAMGWYRQAPGKEREFVAAIRRSGSGTYYADSVKGRFTISRDNAKNNVYLQMNSLKPEDTAVYYCAFVPPRLYYHYDYWGQGTQVTVSS”, which “polyreactivity (PSR sort gate)” value is on record?
**A.** The value was “high polyreactivity”.

**Q.** With “QVQLVESGGGLVQAGGSLRLSCAASGFTFTSYAMGWYRQAPGKERELVAAITVTGGRTYYADSVKGRFTISRDNAKNTVYLQMNSLKPEDTAVYYCATVFSLSSPYWKHYYWGQGTQVTVSS” as the sequence, how does the “polyreactivity (PSR sort gate)” value read?
**A.** Its value is “high polyreactivity”.

**Q.** For “QVQLVESGGGLVQAGGSLRLSCAASGFTFTTYDMGWYRQAPGKERELVAAINSGGSTNYADSVKGRFTISRDNAKNTVYLQMNSLKPEDTAVYYCAAEFYWYYNNFFEDRYYWGQGTQVTVSS”, which “polyreactivity (PSR sort gate)” value is on record?
**A.** Its value is “low polyreactivity”.
